Reference: patent US9012420B2, “Aptamer for chymase, and use thereof” (Ribomic Inc., priority 2009, dated 2015)

Assays:
chymase [1] = target: T1, chymase (Homo sapiens, UniProt P23946 P23946:22-247); assay: inhibition; angiotensin I; recombinant 0.394; settings: tags: human skin mast cell, Calbiochem
T1 sequence: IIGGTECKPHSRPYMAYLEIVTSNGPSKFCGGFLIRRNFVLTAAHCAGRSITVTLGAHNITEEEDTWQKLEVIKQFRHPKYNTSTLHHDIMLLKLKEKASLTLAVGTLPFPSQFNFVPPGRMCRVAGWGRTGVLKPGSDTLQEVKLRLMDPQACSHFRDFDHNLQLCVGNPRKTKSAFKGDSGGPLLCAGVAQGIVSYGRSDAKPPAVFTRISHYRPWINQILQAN
Protocol: (§1) The total volume of solution for an enzyme reaction in the assay was set to 50 μL, and the reaction was performed in solution C buffer. First, 0.3-0.75 ng of chymase (recombinant, (manufactured by SIGMA) or native (manufactured by Calbiochem)) was diluted with solution C to give 5 μL thereof. Here, the recombinant is chymase expressed by yeast, and the native is chymase purified from human skin mast cell. The nucleic acid was serially diluted with solution C at a concentration of 0.0027-2 μM to give 25 μL thereof. The chymase solution (5 μL) and the nucleic acid solution (25 μL) were mixed, and the mixture was incubated at 37° C. for 5 min. […] The whole mixture was centrifuged at 4° C., 14000 rpm for 10 min, and the supernatant (30 μL) was used for the next fluorescence induction reaction.
(§2) The above-mentioned supernatant (30 μL) was added to a 96 well plate (black, manufactured by Costar), a solution (15 μL) of 2% o-phthalaldehyde (manufactured by SIGMA) in methanol and 0.3M NaOH solution (170 μL) were added to each well, and the mixture was incubated at room temperature for 10 min. […] The plate was set on a microplate reader SpectraMax190 (manufactured by Molecular device) and the fluorescence intensity was measured at an excitation wavelength of 355 nm and a fluorescence wavelength of 460 nm.

chymase [2] = target: T1, chymase; assay: inhibition; Suc-AAPF-MCA, 37 C, solution C; settings: tags: recombinant, expressed in yeast, SIGMA
Protocol: Here, Suc is a protecting succinyl group, and MCA is a 4-methylcoumaryl-7-amide group; upon cleavage of the C-terminal side of phenylalanine, AMC (7-amino-4-methyl-coumarine) is released. By detecting the fluorescence of this AMC, the enzyme activity of chymase can be determined. The assay was performed using a 96-well plate (F16 Black Maxisorp Fluoronunc, manufactured by Nunc), with a reaction mixture volume of 100 μL, in solution C as a buffer solution. First, each nucleic acid was serially diluted to 0.0027-2 μM concentrations in solution C to obtain 50 μL solutions. After 10 μL of the 1 mM substrate prepared in solution C was added thereto, the plate was set to the microplate reader SpectraMax190 (manufactured by Molecular Devices Corporation), and incubated at 37° C. for 5 minutes. Separately, 0.05 μg (or 0.005 μg) of chymase (recombinant, manufactured by SIGMA) was diluted in solution C to obtain a 40 μL chymase solution, and incubated at 37° C. for 5 minutes. The chymase solution was added to the mixture of the nucleic acid and substrate to initiate an enzyme reaction. The final chymase concentration in the reaction mixture was 16.7 nM (or 1.67 nM), the final substrate concentration being 100 μM. The plate containing the reaction mixture was set to the microplate reader SpectraMax190 (manufactured by Molecular Devices Corporation), and examined for time-dependent changes in the fluorescence intensity at 37° C. for 5 minutes (or 30 minutes) (excitation wavelength 380 nm, detection wavelength 460 nm). A linear approximation of the increase in the fluorescence of the AMC released from the substrate by chymase activity was generated, and its slope was taken as the initial velocity […]. For control, samples were treated and analyzed in the same manner in two cases: use of a 30N or 40N (a nucleotide of 30 or 40 consecutive bases represented by N; N is A, G, C or T) nucleic acid pool (negative control), and use of chymostatin, a known chymotrypsin-like serine protease inhibitor (positive control). Taking the initial reaction velocity without the nucleic acid and inhibitor (V_0) as a 100% enzyme activity, the inhibitory rate of each test substance was calculated using the following equation: […]
The chymase inhibitory activity was measured in the same manner as in Example 3.

chymase [3] = target: T1, chymase; assay: inhibition; angiotensin I; recombinant 0.310; settings: tags: human skin mast cell, Calbiochem; label: 5' biotin
chymase [4] = target: T1, chymase; assay: inhibition; angiotensin I; recombinant 0.414; settings: tags: human skin mast cell, Calbiochem
Protocol: as §1, §2

chymase [5] = target: T1, chymase; assay: inhibition; angiotensin I; recombinant 0.119; settings: tags: human skin mast cell, Calbiochem
Protocol: as §1, §2

chymase [6] = target: T1, chymase; assay: inhibition; angiotensin I; recombinant 0.426; settings: tags: human skin mast cell, Calbiochem; label: 5' biotin
chymase [7] = target: T1, chymase; assay: inhibition; angiotensin I; recombinant 0.078; settings: tags: human skin mast cell, Calbiochem
Protocol: as §1, §2

chymase [8] = target: T1, chymase; assay: inhibition; angiotensin I; recombinant 0.153; settings: tags: human skin mast cell, Calbiochem
Protocol: as §1, §2

chymase [9] = target: T1, chymase; assay: inhibition; angiotensin I; recombinant 0.039; settings: tags: human skin mast cell, Calbiochem
chymase [10] = target: T1, chymase; assay: inhibition; angiotensin I; recombinant 0.089; settings: tags: human skin mast cell, Calbiochem
Protocol: as §1, §2

chymase [11] = target: T1, chymase; assay: inhibition; angiotensin I; recombinant 0.237; settings: tags: human skin mast cell, Calbiochem
chymase [12] = target: T1, chymase; assay: inhibition; angiotensin I; recombinant 0.326; settings: tags: human skin mast cell, Calbiochem
Protocol: as §1, §2

chymase [13] = target: T1, chymase; assay: inhibition; angiotensin I; recombinant 0.419; settings: tags: human skin mast cell, Calbiochem; label: 3' biotin
chymase [14] = target: T1, chymase; assay: inhibition; angiotensin I; recombinant 0.080; settings: tags: human skin mast cell, Calbiochem
chymase [15] = target: T1, chymase; assay: inhibition; angiotensin I; recombinant 0.057; settings: tags: human skin mast cell, Calbiochem
chymase [16] = target: T1, chymase; assay: inhibition; angiotensin I; recombinant 0.085; settings: tags: human skin mast cell, Calbiochem
chymase [17] = target: T1, chymase; assay: inhibition; angiotensin I; recombinant 0.289; settings: tags: human skin mast cell, Calbiochem
Protocol: as §1, §2

chymase [18] = target: T1, chymase; assay: inhibition; angiotensin I; recombinant 0.137; settings: tags: human skin mast cell, Calbiochem
chymase [19] = target: T1, chymase; assay: inhibition; angiotensin I; recombinant 0.210; settings: tags: human skin mast cell, Calbiochem
Protocol: as §1, §2

chymase [20] = target: T1, chymase; assay: inhibition; angiotensin I; recombinant 0.687; settings: tags: human skin mast cell, Calbiochem
Protocol: as §1, §2

chymase [21] = target: T1, chymase; assay: inhibition; angiotensin I; recombinant 0.328; settings: tags: human skin mast cell, Calbiochem
Protocol: as §1, §2

chymase [22] = target: T1, chymase; assay: inhibition; angiotensin I; recombinant 0.125; settings: tags: human skin mast cell, Calbiochem
Protocol: as §1, §2

chymase [23] = target: T1, chymase; assay: inhibition; angiotensin I; recombinant 0.239; settings: tags: human skin mast cell, Calbiochem
Protocol: as §1, §2

chymase [24] = target: T1, chymase; assay: inhibition; angiotensin I; recombinant 0.161; settings: tags: human skin mast cell, Calbiochem
Protocol: as §1, §2

chymase [25] = target: T1, chymase; assay: inhibition; angiotensin I; recombinant 0.377; settings: tags: human skin mast cell, Calbiochem
Protocol: as §1, §2

B1: 56(48) (mixed)
RNA: GGGUUAGAUAGAGUUAAAAACCC
modifications: 2'-F U; 2'-OMe 1-3,7,8,10,13,16-20; DNA C21-C23; 5' and 3' idT
- IC50 (chymase [1]): 621 nM
- IC50 (chymase [2]): 36 nM

B2: 56(51) (mixed)
RNA: GGGUUAGAUAGAGUUAAAAACCC
modifications: 2'-F U and C; 2'-OMe 1-3,7,10,13,16-20; DNA A8; 5' and 3' idT
- IC50 (chymase [3]): 429 nM
- IC50 (chymase [2]; label: 5' biotin): 29 nM

B3: 56(44) (ssRNA)
RNA: GGGUUAGAUAGAGUUAAAAACCC
modifications: 2'-F U and C; 2'-OMe 1-3,7,8,10,13,16-20; 5' peptide 2 (Cys-Phe, disulfide); 3' idT
- IC50 (chymase [2]): 42 nM
- IC50 (chymase [4]): 643 nM

B4: 56(23) (ssRNA)
RNA: GGGUUAGAUAGAGUUAAAAACCC
modifications: 2'-F U and C; 2'-OMe 1-3,7,8,10,13,16-20; PS 6-7
- IC50 (chymase [5]): 360 nM
- IC50 (chymase [2]): 32 nM

B5: 56(46) (ssRNA)
RNA: GGGUUAGAUAGAGUUAAAAACCC
modifications: 2'-F U and C; 2'-OMe 1-3,7,8,10,13,16-20; 5' and 3' idT
- IC50 (chymase [6]): 742 nM
- IC50 (chymase [2]; label: 5' biotin): 49 nM

B6: 56(32) (ssRNA)
RNA: GGGUUAGAUAGAGUUAAAAACCC
modifications: 2'-F U and C; 2'-OMe 1-3,10,13,16-20; 5' and 3' idT
- IC50 (chymase [7]): 185 nM

B7: 56(50) (mixed)
RNA: GGGUUAGAUAGAGUUAAAAACCC
modifications: 2'-F U and C; 2'-OMe 1-3,7,10,13,16-20; DNA A8; 5' and 3' idT
- IC50 (chymase [8]): 325 nM
- IC50 (chymase [2]): 27 nM

B8: 56(35) (ssRNA)
RNA: GGGUUAGAUAGAGUUAAAAACCC
modifications: 2'-F U and C; 2'-OMe 1-3,10,13,16-20; PS 6-7; 5' and 3' idT
- IC50 (chymase [2]): 24 nM
- IC50 (chymase [9]): 120 nM

B9: 56(31) (ssRNA)
RNA: GGGUUAGAUAGAGUUAAAAACCC
modifications: 2'-F U and C; 2'-OMe 1-3,7,10,13,16-20; 5' and 3' idT
- IC50 (chymase [10]): 266 nM

B10: 56(22) (ssRNA)
RNA: GGGUUAGAUAGAGUUAAAAACCC
modifications: 2'-F U and C; 2'-OMe 1-3,7,8,10,13,16-20; PS 5-6
- IC50 (chymase [11]): 563 nM
- IC50 (chymase [2]): 52 nM

B11: 56(26) (ssRNA)
RNA: GGGUUAGAUAGAGUUAAAAACCC
modifications: 2'-F U and C; 2'-OMe 1-3,7,8,10,13,16-20; 5' and 3' idT
- IC50 (chymase [12]): 743 nM
- IC50 (chymase [2]): 54 nM

B12: 56(47) (ssRNA)
RNA: GGGUUAGAUAGAGUUAAAAACCC
modifications: 2'-F U and C; 2'-OMe 1-3,7,8,10,13,16-20; 5' and 3' idT
- IC50 (chymase [13]): 542 nM
- IC50 (chymase [2]; label: 3' biotin): 37 nM

B13: 56(29) (ssRNA)
RNA: GGGUUAGAUAGAGUUAAAAACCC
modifications: 2'-F U and C; 2'-OMe 1-3,7,8,10,13,16-20; PS 5-6,6-7; 5' and 3' idT
- IC50 (chymase [14]): 366 nM
- IC50 (chymase [2]): 36 nM

B14: 56(34) (ssRNA)
RNA: GGGUUAGAUAGAGUUAAAAACCC
modifications: 2'-F U and C; 2'-OMe 1-3,7,10,13,16-20; PS 6-7; 5' and 3' idT
- IC50 (chymase [15]): 162 nM
- IC50 (chymase [2]): 31 nM

B15: 56(33) (ssRNA)
RNA: GGGUUAGAUAGAGUUAAAAACCC
modifications: 2'-F U and C; 2'-OMe 1-3,8,10,13,16-20; PS 6-7; 5' and 3' idT
- IC50 (chymase [16]): 291 nM
- IC50 (chymase [2]): 35 nM

B16: 69(2) (ssRNA)
RNA: AAAGGGUUAGAUAGAGUUAAAAACCC
modifications: 2'-F U and C; 2'-OMe 1-6,10,11,13,16,19-23; 5' and 3' idT
- IC50 (chymase [17]): 752 nM
- IC50 (chymase [2]): 48 nM

B17: 56(28) (ssRNA)
RNA: GGGUUAGAUAGAGUUAAAAACCC
modifications: 2'-F U and C; 2'-OMe 1-3,7,8,10,13,16-20; PS 6-7; 5' and 3' idT
- IC50 (chymase [18]): 410 nM
- IC50 (chymase [2]): 44 nM

B18: 56(30) (ssRNA)
RNA: GGGUUAGAUAGAGUUAAAAACCC
modifications: 2'-F U and C; 2'-OMe 1-3,8,10,13,16-20; 5' and 3' idT
- IC50 (chymase [19]): 521 nM
- IC50 (chymase [2]): 34 nM

B19: 56(42) (ssRNA)
RNA: GGGUUAGAUAGAGUUAAAAACCC
modifications: 2'-F U and C; 2'-OMe 1-3,7,8,10,13,16-20; 5' cholesterol; 3' idT
- IC50 (chymase [20]): 601 nM
- IC50 (chymase [2]): 71 nM

B20: 56(43) (ssRNA)
RNA: GGGUUAGAUAGAGUUAAAAACCC
modifications: 2'-F U and C; 2'-OMe 1-3,7,8,10,13,16-20; 5' peptide 1 (Phe-Cys, disulfide); 3' idT
- IC50 (chymase [21]): 591 nM
- IC50 (chymase [2]): 35 nM

B21: 69(1) (ssRNA)
RNA: AAAGGGUUAGAUAGAGUUAAAAACCC
modifications: 2'-F U and C; 2'-OMe 1-6,10,11,13,16,19-23; PS 9-10; 5' and 3' idT
- IC50 (chymase [22]): 480 nM
- IC50 (chymase [2]): 44 nM

B22: SEQ 70 (mixed)
mixed: GGGTTAGAUAGAGUUAAAAACCC
modifications: 2'-F U and C; 2'-OMe 1-3,7,8,10,13,16-20; DNA T4,T5; 5' and 3' idT
- IC50 (chymase [23]): 478 nM

B23: SEQ 71 (mixed)
mixed: GGGUUAGAUAGAGTUAAAAACCC
modifications: 2'-F U and C; 2'-OMe 1-3,7,8,10,13,16-20; DNA T14; 5' and 3' idT
- IC50 (chymase [24]): 341 nM

B24: 56(45) (ssRNA)
RNA: GGGUUAGAUAGAGUUAAAAACCC
modifications: 2'-F U and C; 2'-OMe 1-3,7,8,10,13,16-20; 5' idT; 3' PEG 40 kDa
- IC50 (chymase [25]): 303 nM
- IC50 (chymase [2]): 59 nM
